From US20050037969A1 come the findings set out here.

By IC50 is commonly meant the concentration that gives 50% inhibition.

Experiment [1] concerns the target GST-WWP3 (MAGI-1) fusion protein (PDZ domains 1-2) (Homo sapiens) (UniProt Q96QZ7). Nature of the experiment: G assay format, competition against labeled DNAM-1 peptide.
Experiment [2] addresses GST-TIP-1 PDZ domain fusion protein (Homo sapiens) (UniProt O14907). Nature of the experiment: G assay competition against 20 uM TAX 20-mer.
Experiment [3] shares this target. The experiment is described as follows: G assay competition against CD95 20-mer.
Experiment [4] shares this target. Nature of the experiment: G assay competition against 20 uM CD95 20-mer.
Experiment [5] shares this target. Nature of the experiment: competition for TIP1 binding, reference CD95.
In experiment [6] the target is GST-NeDLG fusion protein (PDZ domains 1-2) (Mus musculus (Mouse)) (UniProt P70175). The experiment is described as follows: G assay titration of biotinylated peptide on plate-bound GST-PDZ, apparent affinity from saturation fit.
Experiment [7] concerns the target GST-DLG1 fusion protein (PDZ domains 1-2) (human) (UniProt Q12959). The description is as above.

Ends that are not written are not given here. * marks the point of attachment. Biotin = O=C1N[C@H]2[C@H](CS[C@H]2CCCCC(=O)*)N1

Take SRRPKTRV [peptide corresponding to the C-terminal 8 amino acids of DNAM-1]: in experiment [1], the inhibitor concentration giving at least 50% inhibition was in the range of 20 to 200 µM.
For the molecule RNEIQSLV [Fas (CD95) 8-mer competitor peptide RNEIQSLV (unlabeled)], in experiment [2], the IC50 came out at 500 µM.
Molecule KHFRETEV [8-mer peptide corresponding to the C-terminus of TAX] gave a concentration that effectively blocked binding in experiment [3] of 100 µM. Further, the IC50 in experiment [4] lay within 20 to 100 µM. In experiment [5], this molecule registered a fold better competition for binding to TIP1 than CD95 of 1000 fold.
For Biotin-KDITSDSENSNFRNEIQSLV [CD95 (Fas) C-terminal peptide AA13L, biotinylated], the Kd in experiment [6] and in experiment [7] was 54 µM in each case.
As to Biotin-ISGTPTSTMVHGMTSSSSVV [Clasp-2 C-terminal peptide AA2L, biotinylated], the values for the Kd in experiment [6] and in experiment [7] were 7.5 µM and 21 µM, respectively.
